# Experimental data taken from PMC5835413 (Journal of structural biology, 2017).
# B1: PH domain of p114RhoGEF (domain or fragment, UniProt Q6P9R4 723-825, looked up)
# chain: QLHLEGALCWKSTSGRLKDVLAVLLTDVLLLLQEKDQKYVFASVDSKPPVISLQKLIVREVANEEKAMFLISASMQGPEMYEMYTSSKEDRNIWMAHIRRAVE
# B2: Fluorescent p190-PH: CFP fused to the N-terminus of the p190 PH domain (domain or fragment)
# chain: EKNQKWLEILNKIENKTYTKLKNGHVFRKQALMSEERTLLYDGLVYWKTATGRFKDILALLLTDVLLFLQEKDQKYIFAAVDQKPSVISLQKLIAREVANEERGMFLISASSAGPEMYEIHTNSKEERNNWMRRIQQAVESCPEEK
# B3: PH domain of human p190RhoGEF (residues 1049-1194) with C-terminal His6 (domain or fragment, UniProt Q8N1W1 1049-1194, looked up)
# chain: B2 chain
# B4: PH domain of human PDZRhoGEF (residues 927-1085) with C-terminal His6 (domain or fragment, UniProt O15085 927-1085, looked up)
# chain: TENRHRLEGYQKRLDATALERASNPLAAEFKSLDLTTRKMIHEGPLTWRISKDKTLDLHVLLLEDLLVLLQKQDEKLLLKCHSKTAVGSSDSKQTFSPVLKLNAVLIRSVATDKRAFFIICTSKLGPPQIYELVALTSSDKNTWMELLEEAVRNATRHP
# B5: PH domain of AKAP-Lbc (domain or fragment, UniProt Q12802 2192-2333, looked up)
# chain: VASYEKKVRLNEIYTKTDSKSIMRMKSGQMFAKEDLKRKKLVRDGSVFLKNAAGRLKEVQAVLLTDILVFLQEKDQKYIFASLDQKSTVISLKKLIVREVAHEEKGLFLISMGMTDPEMVEVHASSKEERNSWIQIIQDTIN
# B6: Non-tagged mutant (E40D/V43S/A56G) RhoA bound to GTPγS (natural protein)
# chain: not shown
# What was measured:
# [1] = molecular target: Non-tagged RhoA bound to GTPγS (human, UniProt P61586 1-193); assay: ITC
# [2] = molecular target: Non-tagged Rac1 bound to GTPγS (human, UniProt P63000 1-192); assay: FRET or BRET
# GST-Rac2 = GST-Rac2 (human, UniProt P15153 1-192); assay: pull-down
# GST-RhoB = GST-RhoB (human, UniProt P62745 1-196); assay: pull-down
# GST-Rac3 = GST-Rac3 (human, UniProt P60763 1-192); assay: pull-down
# GST-RhoC = GST-RhoC (human, UniProt P08134 1-193); assay: pull-down
# [3] = molecular target: B2; assay: FRET or BRET
# Non-tagged RhoA bound to GTPγS, sequence (P61586 whole entry): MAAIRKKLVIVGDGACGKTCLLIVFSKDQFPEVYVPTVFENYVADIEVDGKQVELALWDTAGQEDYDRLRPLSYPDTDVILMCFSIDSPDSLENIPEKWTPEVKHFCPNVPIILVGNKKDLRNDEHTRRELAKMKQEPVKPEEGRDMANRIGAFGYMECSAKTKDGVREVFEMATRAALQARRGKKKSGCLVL
# GST-RhoC, sequence (P08134 whole entry): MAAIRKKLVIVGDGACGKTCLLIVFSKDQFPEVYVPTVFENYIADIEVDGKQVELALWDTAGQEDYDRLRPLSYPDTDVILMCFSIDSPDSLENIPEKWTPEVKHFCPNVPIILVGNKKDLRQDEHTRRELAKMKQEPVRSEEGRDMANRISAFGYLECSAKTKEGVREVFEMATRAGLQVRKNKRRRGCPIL
# GST-RhoB, sequence (P62745 whole entry): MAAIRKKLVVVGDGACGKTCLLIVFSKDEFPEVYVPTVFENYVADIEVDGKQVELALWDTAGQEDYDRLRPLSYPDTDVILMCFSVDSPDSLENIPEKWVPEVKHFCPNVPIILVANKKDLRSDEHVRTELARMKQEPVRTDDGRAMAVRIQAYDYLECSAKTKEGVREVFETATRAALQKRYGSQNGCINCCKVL
binder,measurement,setting,value
B1,Kd,[1],13 µM
B2,Kd,[2],~20 µM
B3,Kd,[1],~2 µM
same,binding result,GST-Rac2,binds
same,binding result,GST-RhoB,binds
same,binding result,GST-Rac3,binds
same,binding result,GST-RhoC,binds
B4,Kd,[1],1.2 µM
B5,Kd,[1],3.1 µM
B6,fold reduction in affinity against wild-type RhoA,[3],2 fold
